Molecular target: human lymphotoxin (TNFβ) (human) (UniProt P01374)
Experiment: cell-based or functional assay

Sequence of human lymphotoxin (TNFβ) (human) (P01374 35-205 limits assumed): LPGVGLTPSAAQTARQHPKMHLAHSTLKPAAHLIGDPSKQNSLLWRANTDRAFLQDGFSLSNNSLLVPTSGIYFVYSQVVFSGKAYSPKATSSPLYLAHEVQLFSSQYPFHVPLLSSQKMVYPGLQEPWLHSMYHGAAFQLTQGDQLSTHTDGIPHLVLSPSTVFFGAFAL

Substance “p55-sf2 (p55 TNF receptor / IgG1 heavy chain single fusion with truncated light chain JCK) (from UniProt P19438) (Fc fusion)” has an amount needed for the same inhibition of TNFβ cytotoxicity, against p75P-sf2 (fold (against p75P-sf2)) of 3.

Source: patent US20030204066A1
